Assays:
[1] = molecular target: T1, rat Smoothened (rSmo), Flag epitope tagged, expressed on transfected cells (rat, UniProt P97698 33-793); experiment: staining of transfected cells exposed to the ligand
T1 construct: residues 33-793 derived from that statement; Transiently expressed in COS-7 or 293 cells; co-immunoprecipitations were done from cell lysates; also called Flag tagged rSmo
Procedure: (§1) Binding assays were conducted to test binding between cells expressing rSmo or dSmo and (1) epitope tagged SHH-N, (2) an IgG-SHH-N chimera, and (3) an epitope tagged Desert HH. For visualization of SHH binding, COS-7 cells (Genentech, Inc.) transiently expressing rSmo or mPatched (murine Patched) were exposed to epitope tagged SHH-N (2 hours at 4° C.), washed 4 times with PBS, then fixed and stained with a cy3-conjugated anti-human IgG (Jackson ImmunoResearch) (for IgG-SHH-N) or anti-Flag M2 antibody (Kodak/IBI) (for Flag-tagged SHH-N).

[2] = molecular target: T2, Drosophila Smoothened (dSmo), epitope tagged, expressed on transfected cells (Drosophila, UniProt P91682 32-1036); experiment: as above
T2 construct: cDNA described in Alcedo et al; also called dros.smo
T2 sequence: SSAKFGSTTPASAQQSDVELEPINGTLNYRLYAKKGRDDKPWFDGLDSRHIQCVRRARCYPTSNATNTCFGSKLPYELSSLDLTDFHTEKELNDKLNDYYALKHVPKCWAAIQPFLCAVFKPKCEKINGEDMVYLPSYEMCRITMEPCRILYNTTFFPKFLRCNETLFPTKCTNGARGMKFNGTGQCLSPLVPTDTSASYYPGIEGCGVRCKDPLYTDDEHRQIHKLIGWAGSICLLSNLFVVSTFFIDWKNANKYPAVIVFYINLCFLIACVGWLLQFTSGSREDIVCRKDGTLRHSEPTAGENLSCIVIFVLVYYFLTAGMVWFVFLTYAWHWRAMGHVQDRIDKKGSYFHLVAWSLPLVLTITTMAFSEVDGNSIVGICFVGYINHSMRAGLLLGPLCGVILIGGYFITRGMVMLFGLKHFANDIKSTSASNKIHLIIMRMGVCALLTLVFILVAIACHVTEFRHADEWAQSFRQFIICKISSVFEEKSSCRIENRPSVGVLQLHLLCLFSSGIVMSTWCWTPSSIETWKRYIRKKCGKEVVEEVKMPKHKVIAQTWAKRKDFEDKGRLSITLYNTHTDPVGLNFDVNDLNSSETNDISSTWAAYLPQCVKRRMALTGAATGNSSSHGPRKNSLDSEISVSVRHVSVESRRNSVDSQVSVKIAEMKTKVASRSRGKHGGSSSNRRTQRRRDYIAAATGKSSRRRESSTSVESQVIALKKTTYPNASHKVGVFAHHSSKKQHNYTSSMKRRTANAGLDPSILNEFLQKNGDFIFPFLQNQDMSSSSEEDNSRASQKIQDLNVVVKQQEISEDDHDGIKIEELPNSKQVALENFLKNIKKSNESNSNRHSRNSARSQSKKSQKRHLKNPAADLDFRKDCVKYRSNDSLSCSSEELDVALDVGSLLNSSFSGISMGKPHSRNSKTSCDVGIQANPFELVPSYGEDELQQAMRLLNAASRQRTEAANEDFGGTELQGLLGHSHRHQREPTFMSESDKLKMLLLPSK
Procedure: as §1

T1 sequence (P97698 33-793): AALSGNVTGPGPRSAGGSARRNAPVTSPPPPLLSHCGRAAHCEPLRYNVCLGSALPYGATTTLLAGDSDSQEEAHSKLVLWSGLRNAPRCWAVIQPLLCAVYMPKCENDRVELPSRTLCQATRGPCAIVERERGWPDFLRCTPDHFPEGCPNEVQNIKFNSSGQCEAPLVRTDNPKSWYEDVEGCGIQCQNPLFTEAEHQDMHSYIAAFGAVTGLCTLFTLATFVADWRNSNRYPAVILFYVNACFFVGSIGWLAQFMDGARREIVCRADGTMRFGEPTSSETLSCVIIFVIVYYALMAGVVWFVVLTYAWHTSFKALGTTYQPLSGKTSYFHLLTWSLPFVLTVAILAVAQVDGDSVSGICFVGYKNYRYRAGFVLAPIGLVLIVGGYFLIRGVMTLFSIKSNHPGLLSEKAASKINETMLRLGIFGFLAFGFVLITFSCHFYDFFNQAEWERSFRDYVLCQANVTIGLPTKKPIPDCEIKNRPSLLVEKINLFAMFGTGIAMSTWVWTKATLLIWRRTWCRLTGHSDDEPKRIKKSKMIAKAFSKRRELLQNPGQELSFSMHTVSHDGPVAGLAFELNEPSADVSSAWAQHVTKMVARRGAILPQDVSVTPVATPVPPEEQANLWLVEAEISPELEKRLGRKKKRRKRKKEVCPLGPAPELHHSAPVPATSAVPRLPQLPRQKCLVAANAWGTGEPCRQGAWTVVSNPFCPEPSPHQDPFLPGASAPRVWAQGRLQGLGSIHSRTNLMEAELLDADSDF

B1: epitope tagged Desert HH (ligand, not shown: small tags and cut ends)
chain: not shown
B1: no binding [1]; no binding [2].

From patent publication US6407216 (Genentech, dated 2002)
